The values below come from paper PMC3846842.

Values joined by “and” are separate entries in the source; they are usually repeats but may differ in a detail not shown here. Equal values may be shown once.

Assay [1] addresses BtcA (Bordetella pertussis). The assay can be described thus: cross-linking; BtcA about 4 mg/ml in PBS with serially diluted EGS (from 3 mM), 30 min at RT, SDS-PAGE.
For assay [2], the target named is BteA287 (BteA N-terminal domain, residues 1-287) (Bordetella pertussis). Description: MALDI-TOF MS; BtcA-BteA287 complex, linear mode, m/z 20,000 to 150,000; the methods describe EGS cross-linking of the complex before MALDI-TOF analysis.
The target is the same in assay [3]. Description: MST; labeled BteA287 or BteA32-287 (NT-495 BLUE-NHS) mixed with BtcA serially diluted from 200 uM or 100 uM; 20 mM Tris 8, 350 mM NaCl, 20 mM EDTA, 0.05% Tween-20; 20°C; logistic dose-response fit, three measurements averaged.
In assay [4] the target is BteA32-287 (Bordetella pertussis). The assay is described as above.
Assay [5] concerns the target BtcA (Bordetella pertussis). The assay can be described thus: SEC-RALS; BtcA (525 ug) on Superdex 200 10/300 with triple detector array; 20 mM Tris pH 8.0, 350 mM NaCl, 20 mM EDTA.

With BtcA (natural protein), the stoichiometry N in assay [1] and in assay [5] was 2 in each case. The stoichiometry N (BtcA per BteA287) in assay [2] was 1 and 2. In addition, the figures for the Kd in assay [3] and in assay [4] were 6.6 µM and 14 µM, respectively.
As to “BteA287 (BteA N-terminal domain, residues 1-287) (domain or fragment)”, in assay [2], the stoichiometry N is 2.
